Measurements from patent US20130209458A1.
pKd: −log10 of the molar value.

Target: MUC1 (TA-Muc1) on the human tumor cell line ZR-75-1 (human) (UniProt P15941)
Test: Scatchard analysis, 111In-labelled antibody on ZR-75-1 cells

pKd | Substance
8.11 | PankoMab expressed in CHO (antibody)
8.48 | PankoMab expressed in GT-5s (antibody)
